# B1: Clone I antibody (mouse monoclonal anti-canine IL4R) (antibody, mouse IgG1, kappa, V domains shown)
# VH: EVQLQQSGPELVKPGASVKMSCKASGYTFTSYVMHWVKQKPGQGLEWIGYINPNNDGTFYNGKFKGKATLTSDKSSSTAYMELSSLTSEDSAVYYCAAFYYGFAYWGQGTLVTVSA
# VL: DIVLTQSPSSLSASLGERVSLTCRASQEISGYLSWLQQKPDGTIKRLIYAASTLDSGVPKRFSGSRSGSDFSLTISSLESEDFADYYCLQYASYPWTFGGGAKLEIKR
# notes: Mouse IgG; also called anti-IL4R-mAb Clone I
# Columns and labels:
# [1] = molecular target: Canine/Human IL4R-ECD_C-HuFc_His6_Hybrid1 (canine/human hybrid); assay: Western blot, non-reducing, 293 supernatant concentrated 3-fold
# [2] = molecular target: Canine/Human IL4R-ECD_C-HuFc_His6_Hybrid13 (canine/human hybrid); assay: as above
# [3] = molecular target: Canine/Human IL4R-ECD_C-HuFc_His6_Hybrid6 (canine/human hybrid); assay: as above
# [4] = molecular target: Feline IL4R-ECD_C-HuFc_His6 (processed) (feline, biotinylated in the Octet assay of Example 10); assay: BLI (Octet): biotinylated feline IL4R-ECD_C-HuFc_His6 on streptavidin tips, Clone I 25 ug/mL, 1:1 model
# Method: This finding was consistent with in vitro binding affinity measured by Octet Biosensor. Biotinylated feline IL4R-ECD_C-HuFc_His6 (SEQ ID NO: 111) was captured on streptavidin sensor tips. The association of Clone I antibody (25 μg/mL) and feline IL4R-ECD_C-HuFc_His6 was monitored for 600 seconds. Dissociation was monitored for 600 seconds. A buffer only blank curve was subtracted to correct for any drift. The data were fit to a 1:1 binding model using ForteBio™ data analysis software to determine the kₒₙ, koff, and the Kd. The buffer for dilutions and all binding steps was 20 mM phosphate, 150 mM NaCl, pH 7.2.
# [5] = molecular target: Murine IL4R-ECD_C-HuFc_His6 (processed) (murine); assay: Western blot, reducing and non-reducing SDS-PAGE
# Method: (§1) Cross-reactivity of Clone I antibody to feline, equine, murine, and human IL4R was also investigated. Canine IL4R-ECD_C-HuFc_His6 (SEQ ID NO: 109), feline IL4R-ECD_C-HuFc_His6 (SEQ ID NO: 111), equine IL4R-ECD_C-HuFc_His6 (SEQ ID NO: 113), murine IL4R-ECD_C-HuFc_His6 (SEQ ID NO: 115), and human IL4R-ECD_C-HuFc_His6 (SEQ ID NO: 117) (0.1 μg/lane) were each separated by SDS-PAGE under reducing (+DTT) or non-reducing (−DTT) conditions. The proteins were transferred to PVDF membranes and the blots were probed with Clone I antibody (0.3 μg/mL) and visualized by goat anti-mouse IgG-HRP (FIG. 4A). As a control, the blot was stripped and probed with goat anti-human IgG Fc-HRP to visualize the presence of the IL4R-ECD proteins (FIG. 4B). Clone I antibody immunoreacted with canine IL4R-ECD_C-HuFc_His6 and to a lesser extent with feline IL4R-ECD_C-HuFc_His6 under non-reducing conditions (FIG. 4A, lanes 5 and 1, respectively).
# [6] = molecular target: Equine IL4R-ECD_C-HuFc_His6 (processed) (equine); assay: Western blot, reducing and non-reducing SDS-PAGE
# Method: as §1
# [7] = molecular target: Human IL4R-ECD_C-HuFc_His6 (processed) (human); assay: Western blot, reducing and non-reducing SDS-PAGE
# Method: as §1
# Sequence of Canine/Human IL4R-ECD_C-HuFc_His6_Hybrid6 (canine/human hybrid) (chain, as listed by the source limits assumed): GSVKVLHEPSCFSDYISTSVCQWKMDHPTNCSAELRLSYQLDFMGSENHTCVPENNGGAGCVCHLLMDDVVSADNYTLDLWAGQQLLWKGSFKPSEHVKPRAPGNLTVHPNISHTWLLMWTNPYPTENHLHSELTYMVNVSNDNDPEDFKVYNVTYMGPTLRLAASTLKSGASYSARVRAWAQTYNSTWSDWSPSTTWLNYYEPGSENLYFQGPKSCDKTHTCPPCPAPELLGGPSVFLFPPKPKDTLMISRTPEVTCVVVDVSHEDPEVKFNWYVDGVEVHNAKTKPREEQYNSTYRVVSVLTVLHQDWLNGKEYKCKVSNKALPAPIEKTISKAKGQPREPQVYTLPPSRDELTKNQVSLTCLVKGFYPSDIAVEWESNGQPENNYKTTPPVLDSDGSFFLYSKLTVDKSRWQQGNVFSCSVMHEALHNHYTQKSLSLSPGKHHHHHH
# Sequence of Human IL4R-ECD_C-HuFc_His6 (processed) (human) (chain, as listed by the source limits assumed): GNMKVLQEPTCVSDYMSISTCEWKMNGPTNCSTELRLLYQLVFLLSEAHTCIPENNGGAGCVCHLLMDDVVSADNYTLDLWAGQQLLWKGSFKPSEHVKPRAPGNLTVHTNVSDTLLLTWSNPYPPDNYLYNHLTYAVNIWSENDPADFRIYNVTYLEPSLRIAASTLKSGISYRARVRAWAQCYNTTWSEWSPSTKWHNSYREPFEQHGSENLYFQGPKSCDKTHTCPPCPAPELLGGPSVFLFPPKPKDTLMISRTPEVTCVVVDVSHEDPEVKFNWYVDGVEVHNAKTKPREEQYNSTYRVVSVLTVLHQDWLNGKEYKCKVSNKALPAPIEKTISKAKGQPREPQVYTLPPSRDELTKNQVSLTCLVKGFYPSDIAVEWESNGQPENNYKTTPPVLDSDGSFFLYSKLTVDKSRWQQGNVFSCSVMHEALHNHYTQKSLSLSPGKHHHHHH
# Sequence of Canine/Human IL4R-ECD_C-HuFc_His6_Hybrid1 (canine/human hybrid) (chain, as listed by the source limits assumed): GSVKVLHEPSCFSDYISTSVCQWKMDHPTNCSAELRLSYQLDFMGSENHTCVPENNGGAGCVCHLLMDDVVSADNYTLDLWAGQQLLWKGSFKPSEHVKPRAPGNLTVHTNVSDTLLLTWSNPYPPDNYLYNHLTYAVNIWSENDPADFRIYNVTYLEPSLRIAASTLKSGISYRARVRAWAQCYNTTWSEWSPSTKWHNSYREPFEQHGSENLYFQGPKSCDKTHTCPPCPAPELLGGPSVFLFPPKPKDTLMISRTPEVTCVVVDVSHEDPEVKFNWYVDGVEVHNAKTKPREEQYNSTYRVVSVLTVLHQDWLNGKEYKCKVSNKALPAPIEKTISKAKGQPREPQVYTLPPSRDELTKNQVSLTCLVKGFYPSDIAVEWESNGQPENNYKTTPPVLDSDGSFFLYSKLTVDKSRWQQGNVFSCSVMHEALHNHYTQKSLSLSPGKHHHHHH
# Sequence of Murine IL4R-ECD_C-HuFc_His6 (processed) (murine) (chain, as listed by the source limits assumed): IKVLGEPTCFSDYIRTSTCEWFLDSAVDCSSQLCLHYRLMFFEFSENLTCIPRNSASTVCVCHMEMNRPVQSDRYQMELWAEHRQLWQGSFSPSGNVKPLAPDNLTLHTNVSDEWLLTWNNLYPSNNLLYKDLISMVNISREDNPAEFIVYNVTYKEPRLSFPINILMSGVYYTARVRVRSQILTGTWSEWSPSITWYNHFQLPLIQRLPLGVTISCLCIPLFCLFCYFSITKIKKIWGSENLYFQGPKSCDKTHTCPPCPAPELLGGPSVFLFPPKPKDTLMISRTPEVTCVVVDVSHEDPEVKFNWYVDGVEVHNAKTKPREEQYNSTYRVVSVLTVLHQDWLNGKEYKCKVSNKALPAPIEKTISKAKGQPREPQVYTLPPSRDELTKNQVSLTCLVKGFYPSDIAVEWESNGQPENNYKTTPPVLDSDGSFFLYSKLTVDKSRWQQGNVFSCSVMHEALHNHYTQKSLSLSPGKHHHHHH
# Sequence of Equine IL4R-ECD_C-HuFc_His6 (processed) (equine) (chain, as listed by the source limits assumed): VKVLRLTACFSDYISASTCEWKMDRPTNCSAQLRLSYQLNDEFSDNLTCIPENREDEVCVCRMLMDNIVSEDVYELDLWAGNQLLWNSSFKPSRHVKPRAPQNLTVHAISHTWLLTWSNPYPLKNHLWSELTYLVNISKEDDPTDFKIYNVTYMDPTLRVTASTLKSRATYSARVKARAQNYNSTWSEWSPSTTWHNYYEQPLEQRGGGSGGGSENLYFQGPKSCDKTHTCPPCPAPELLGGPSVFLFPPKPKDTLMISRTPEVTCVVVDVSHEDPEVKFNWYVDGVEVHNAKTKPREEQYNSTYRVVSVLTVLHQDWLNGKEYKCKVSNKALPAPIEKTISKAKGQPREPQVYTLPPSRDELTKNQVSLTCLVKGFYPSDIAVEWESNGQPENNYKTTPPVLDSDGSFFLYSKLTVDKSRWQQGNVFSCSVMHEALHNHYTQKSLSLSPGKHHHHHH
# Sequence of Feline IL4R-ECD_C-HuFc_His6 (processed) (feline, biotinylated in the Octet assay of Example 10) (chain, as listed by the source limits assumed): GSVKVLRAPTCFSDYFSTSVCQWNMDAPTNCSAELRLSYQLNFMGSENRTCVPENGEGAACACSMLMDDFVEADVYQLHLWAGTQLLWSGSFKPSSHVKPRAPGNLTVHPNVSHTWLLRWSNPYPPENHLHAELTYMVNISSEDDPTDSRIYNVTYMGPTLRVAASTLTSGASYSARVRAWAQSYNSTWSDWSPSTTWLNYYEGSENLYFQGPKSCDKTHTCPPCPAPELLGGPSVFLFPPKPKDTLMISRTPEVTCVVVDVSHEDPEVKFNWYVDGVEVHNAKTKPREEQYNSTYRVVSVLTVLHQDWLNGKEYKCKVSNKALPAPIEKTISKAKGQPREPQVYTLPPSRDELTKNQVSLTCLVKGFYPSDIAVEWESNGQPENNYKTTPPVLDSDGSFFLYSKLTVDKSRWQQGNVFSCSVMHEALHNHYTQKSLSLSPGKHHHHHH
# Sequence of Canine/Human IL4R-ECD_C-HuFc_His6_Hybrid13 (canine/human hybrid) (chain, as listed by the source limits assumed): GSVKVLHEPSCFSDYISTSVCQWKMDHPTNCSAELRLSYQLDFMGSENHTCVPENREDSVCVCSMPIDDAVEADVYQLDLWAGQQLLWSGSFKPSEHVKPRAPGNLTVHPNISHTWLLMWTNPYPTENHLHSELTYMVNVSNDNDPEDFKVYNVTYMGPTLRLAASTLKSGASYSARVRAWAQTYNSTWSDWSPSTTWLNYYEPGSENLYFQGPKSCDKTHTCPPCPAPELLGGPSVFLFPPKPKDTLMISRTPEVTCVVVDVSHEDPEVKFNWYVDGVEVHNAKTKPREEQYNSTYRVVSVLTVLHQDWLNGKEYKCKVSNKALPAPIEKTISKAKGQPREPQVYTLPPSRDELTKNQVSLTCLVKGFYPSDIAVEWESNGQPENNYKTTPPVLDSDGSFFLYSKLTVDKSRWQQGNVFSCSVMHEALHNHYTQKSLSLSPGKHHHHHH
binder,measurement,setting,value
B1,binding result,[1],binds
same,binding result,[2],binds
same,binding result,[3],binds
same,Kd,[4],1.1 nM
same,binding result,[5],no binding (tested: Clone I 0.3 ug/mL; 0.1 ug/lane)
same,binding result,[6],no binding (tested: Clone I 0.3 ug/mL; 0.1 ug/lane)
same,binding result,[7],no binding (tested: Clone I 0.3 ug/mL; 0.1 ug/lane)
